According to patent publication US20220152108A1:

Biological target: sodium taurocholate co-transporting receptor (NTCP), expressed on HepG2 cells (human) (UniProt Q14973)
Assay: cell-based or functional assay

UniProt Q14973, sequence (Q14973 whole entry): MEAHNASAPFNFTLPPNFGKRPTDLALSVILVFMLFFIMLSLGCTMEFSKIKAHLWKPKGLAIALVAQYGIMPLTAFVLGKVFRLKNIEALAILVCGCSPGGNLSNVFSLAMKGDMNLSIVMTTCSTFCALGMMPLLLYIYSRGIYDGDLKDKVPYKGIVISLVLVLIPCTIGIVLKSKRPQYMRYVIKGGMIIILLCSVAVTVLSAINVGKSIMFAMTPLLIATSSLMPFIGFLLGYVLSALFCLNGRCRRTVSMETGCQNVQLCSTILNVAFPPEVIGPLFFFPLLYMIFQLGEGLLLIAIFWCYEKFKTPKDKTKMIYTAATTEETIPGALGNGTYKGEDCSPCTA

## CAR-PreS1 construct (signal peptide-PreS1-CD8 hinge-CD8 Transmembrane-CD28-4-1BB-CD3zeta-T2A-EGFP), expressed on T cells
  IFN gamma expression of CAR-PreS1 T cells co-cultured with HepG2 cells expressing or lacking NTCP: 3 fold
  degranulation (CD107a expression) of CAR-PreS1 T cells co-cultured with HepG2 cells expressing or lacking NTCP: 2 fold
